Laboratory results reported in patent publication US20140147384A1 (NORDIC NANOVECTOR, published 2014).
Blank lines part the entries; values can stand above or below the molecule they belong to.

Legend:
[1] = target: CD20 on living lymphoma cells (Raji, Rael, Daudi) (UniProt P11836); assay: immunoreactive fraction, modified Lindmo method on lymphoma cells; 1 experiment
[2] = target: CD20 on living lymphoma cells (Raji, Rael, Daudi) (UniProt P11836); assay: immunoreactive fraction, modified Lindmo method on lymphoma cells; mean ± SD of 6 experiments
[3] = target: CD20 on living lymphoma cells (Raji, Rael, Daudi) (UniProt P11836); assay: ^125I-labeled antibody on Rael cells, one-step curve fit of specific binding against time and concentration
[4] = target: CD20 on living lymphoma cells (Raji, Rael, Daudi) (UniProt P11836); assay: ^125I-labeled antibody on Raji cells, one-step curve fit of specific binding against time and concentration
[5] = target: T1, human CD37 on living lymphoma cells (Raji, Rael, Daudi) (human, UniProt P11049 1-281); assay: ^125I-labeled antibody on Rael cells, one-step curve fit of specific binding against time and concentration
T1 construct: whole, on cells; Target of HH1 and of the three bought anti-CD37 antibodies on cell lines; also called CD37 antigen
T1 sequence (looked up): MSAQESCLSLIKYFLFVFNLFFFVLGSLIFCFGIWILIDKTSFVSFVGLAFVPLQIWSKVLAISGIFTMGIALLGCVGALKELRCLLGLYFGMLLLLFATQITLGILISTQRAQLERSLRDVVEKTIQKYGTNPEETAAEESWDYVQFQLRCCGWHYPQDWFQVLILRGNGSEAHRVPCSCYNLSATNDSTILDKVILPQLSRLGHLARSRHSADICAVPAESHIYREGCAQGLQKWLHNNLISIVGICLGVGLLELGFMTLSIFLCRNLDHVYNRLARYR
Method: (§1) The association rate constant, kₐ, the equilibrium dissociation constant, Kd, and the mean number of binding sites, Bₘₐₓ, was determined by a one-step curve fitting method (Dahle et al. 2007). The binding parameters were measured for HH1 and rituximab and for three different lymphoma cell lines; Raji, Rael and Daudi cells (Table 2). Specific binding was measured as a function of time and antibody concentration, and the solution of the differential equation describing the net rate of formation of the antigen-antibody complex was fitted to the experimental data points using the association rate constant, kₐ, the equilibrium dissociation constant, Kd, and the mean number of binding sites, Bₘₐₓ, as parameters. Five million cells pr ml were used, four concentrations of ¹²⁵I-labeled antibody (100 ng/ml, 1000 ng/ml, 5000 ng/ml and 10000 ng/ml) and 7 incubation time points (5 min, 10 min, 20 min, 30 min, 1 h, 1.5 h and 2 h). After incubation, cells were washed twice with PBS, and then counted in a gamma counter.

[6] = target: T1, human CD37 on living lymphoma cells …; assay: ^125I-labeled antibody on Raji cells, one-step curve fit of specific binding against time and concentration
Method: as §1

[7] = target: T1, human CD37 on living lymphoma cells …; assay: ^125I-labeled antibody on Daudi cells, one-step curve fit of specific binding against time and concentration
Method: as §1

Sequence of CD20 on living lymphoma cells (Raji, Rael, Daudi) (P11836 whole entry): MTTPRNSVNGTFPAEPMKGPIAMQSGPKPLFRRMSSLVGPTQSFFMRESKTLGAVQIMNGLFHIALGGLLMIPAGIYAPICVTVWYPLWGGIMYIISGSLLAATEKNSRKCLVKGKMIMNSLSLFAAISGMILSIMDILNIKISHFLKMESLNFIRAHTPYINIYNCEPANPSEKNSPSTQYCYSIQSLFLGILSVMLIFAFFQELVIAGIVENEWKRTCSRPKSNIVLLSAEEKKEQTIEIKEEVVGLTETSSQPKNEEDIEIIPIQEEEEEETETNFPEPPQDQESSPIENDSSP

Molecule: ^177Lu-rituximab (antibody)
IRF (%) [1]: 60%

B1: ^125I-labeled HH1 (antibody, V domains shown)
VH: EIQLQQSGPELVKPGASVKVSCKASGYSFTDYNMYWVKQSHGKSLEWIGYIDPYNGDTTYNQKFKGKATLTVDKSSSTAFIHLNSLTSEDSAVYYCARSPYGHYAMDYWGQGTSVTVSS
VL: DIVMTQSHKLLSTSVGDRVSITCKASQDVSTAVDWYQQKPGQSPKLLINWASTRHTGVPDRFTGSGSGTDYTLTISSMQAEDLALYYCRQHYSTPFTFGSGTKLEIK
modifications: ^125I by indirect iodination with IODOGEN tubes; chain and residues not stated
Kd [5]: 12.7 nM
Kd [6]: 6.3 nM
Kd [7]: 2.7 nM

Now from value to molecule:

IRF (%) [1]: 45%
Molecule: ^111In-rituximab (antibody)

IRF (%), mean [2]: 62%
Bmax(Ag/cell) [3]: 626000 Ag/cell
Kd [3]: 12 nM
Bmax(Ag/cell) [4]: 272000 Ag/cell
Kd [4]: 4.8 nM
Molecule: ^125I-rituximab (antibody)
